Target: Dispatched-yellow fluorescent protein (YFP) (D. melanogaster) (UniProt Q9VNJ5)
Experiment: MST

Chain of UniProt Q9VNJ5 (Q9VNJ5 whole entry): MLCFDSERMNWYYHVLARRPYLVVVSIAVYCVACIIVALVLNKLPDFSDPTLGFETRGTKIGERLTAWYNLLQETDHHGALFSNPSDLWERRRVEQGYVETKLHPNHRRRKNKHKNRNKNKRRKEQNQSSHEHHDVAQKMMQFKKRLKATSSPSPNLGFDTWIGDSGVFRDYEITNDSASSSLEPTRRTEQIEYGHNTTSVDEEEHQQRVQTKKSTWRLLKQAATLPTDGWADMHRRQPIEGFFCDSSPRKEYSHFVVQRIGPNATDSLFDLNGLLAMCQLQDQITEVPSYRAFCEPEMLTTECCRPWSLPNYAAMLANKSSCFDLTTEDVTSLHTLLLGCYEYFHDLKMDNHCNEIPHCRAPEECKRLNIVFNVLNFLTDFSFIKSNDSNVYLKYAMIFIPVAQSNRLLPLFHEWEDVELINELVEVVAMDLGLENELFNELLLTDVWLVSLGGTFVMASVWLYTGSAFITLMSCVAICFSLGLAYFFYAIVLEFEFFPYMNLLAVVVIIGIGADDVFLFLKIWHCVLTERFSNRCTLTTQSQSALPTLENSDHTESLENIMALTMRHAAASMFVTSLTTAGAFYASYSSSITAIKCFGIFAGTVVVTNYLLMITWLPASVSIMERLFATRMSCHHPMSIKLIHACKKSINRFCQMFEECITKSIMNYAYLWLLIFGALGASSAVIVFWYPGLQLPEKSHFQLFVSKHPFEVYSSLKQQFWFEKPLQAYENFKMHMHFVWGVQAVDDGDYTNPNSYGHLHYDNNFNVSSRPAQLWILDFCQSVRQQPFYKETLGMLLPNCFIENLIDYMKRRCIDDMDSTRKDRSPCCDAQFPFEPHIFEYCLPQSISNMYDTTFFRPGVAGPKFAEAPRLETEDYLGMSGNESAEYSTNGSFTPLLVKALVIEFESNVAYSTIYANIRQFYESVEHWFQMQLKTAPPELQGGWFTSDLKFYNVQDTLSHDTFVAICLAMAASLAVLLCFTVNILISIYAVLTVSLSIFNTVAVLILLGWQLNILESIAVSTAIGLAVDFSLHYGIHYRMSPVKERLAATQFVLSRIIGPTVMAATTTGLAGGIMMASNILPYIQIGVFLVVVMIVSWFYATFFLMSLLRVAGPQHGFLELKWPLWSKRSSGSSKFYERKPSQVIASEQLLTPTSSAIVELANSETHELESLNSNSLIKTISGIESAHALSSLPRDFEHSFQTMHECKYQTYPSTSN

Kd: 6.2 µM
Substance: modified D. melanogaster hedgehog N-terminal fragment HhN_(C85II) (from UniProt Q02936 85-257) (ligand)
